Laboratory results as given in patent publication US8889130B2, “Treatment of osteoarthritis and pain” (Abbvie Inc., priority 2011, dated 2014).

Assays:
[1] = test system: IL-1α, IL-1β, or both IL-1α and IL-1β; experiment: Functional homogeneity: antigen binding in solution by SEC; conditions: 120-minute incubation at 37° C. with antigen in equal molar ratio
Procedure: Because DVD2-Ig binding protein was purified by Protein A chromatography instead of target-specific affinity chromatography, any potential misfolded and/or mismatched VL/VH domains, if present, can be assessed by binding studies against the two different antigens. Such binding analysis was conduced by size exclusion liquid chromatography (SEC). DVD2-Ig binding protein, alone or after a 120-minute incubation period at 37° C. with IL-1α, IL-1β, or both IL-1α and IL-1β, in equal molar ratio, were applied to the column. Each of the antigens was also run alone as controls. […] In the presence of both IL-1α and IL-1β, there was a further and complete shift of the DVD2-Ig binding protein signal, indicating all DVD2-Ig molecules were able to bind both antigens in a uniform fashion.

[2] = test system: male DBA-1 mice; experiment: Collagen-induced arthritis mouse model (rheumatoid arthritis); assay type: in vivo; conditions: therapeutic mode; 1-3 mg/kg intraperitoneally every other day after disease onset
Procedure: The therapeutic effects of anti-IL-1α, anti-IL-1β, combined anti-IL-1α/anti-IL-1β, and murine IL-1α/β DVD4-Ig, were evaluated in a collagen-induced arthritis mouse model well known in the art. Briefly, male DBA-1 mice were immunized with bovine type II collagen in CFA at the base of the tail. The mice were boosted with Zymosan intraperitoneally (i.p) at day 21. After disease onset at day 24-27, mice were selected and divided into separate groups of 10 mice each. […] To neutralize IL-1, mice were injected every other day with 1-3 mg/kg of anti-IL-1α mAb, anti-IL-1βmAb, combination of anti-IL-1α and anti-IL-1β mAbs, or murine IL-1α/β DVD4-Ig intraperitoneally. Mice were carefully examined three times a week for the visual appearance of arthritis in peripheral joints, and scores for disease activity determined.

[3] = test system: male Swiss Webster mice; experiment: Joint instability model (JIM) of osteoarthritis, cartilage degeneration histology; assay type: in vivo, mouse; conditions: Example 3.3.3 (FIG. 4); 21 day study; anti-IL-1β mAb 3, 6, 12 mg/kg; combination 6 mg/kg each
Procedure: The design of study of the in vivo activity of a mIL-1α/β DVD-Ig molecule in the joint instability model (JIM) of osteoarthritis in mice is shown in Table 19. All groups contained 25 mice (n=25), weighing approximately 30 grams (BW=30 g). The study was terminated after 21 days. Two and a half month old, male Swiss Webster mice (25/group/time point), housed 5/cage, were anesthetized with isoflurane anesthesia. Anterior cruciate ligament (ACL) trauma was administered on the right and left knees on day 0 in an attempt to induce OA lesions. Intraperitoneal (ip) treatments with IL-1 inhibitory antibodies IL-1α (9H10) and IL-1β (10G11), alone and in combination, were initiated the day of ACL trauma and continued every 4th day (q4d) for 20 days. The vehicle for the non-treatment control was PBS. Right and left knees were harvested on day 21, and histopathologic alterations were scored and characterized. Data were analyzed using only joints that had proliferative responses indicative of successful instability induction. The proliferative response/instability was scored 0-3, and only unstable joints (scores of 1, 2, or 3) were used in the final analysis. Medial and lateral femoral and tibial cartilage degeneration was scored for severity of cartilage degeneration on a scale 0-5. Four days after the last antibody dose, blood was drawn from all animals from each group for serum harvest. Body weights were recorded weekly. […]
Following 2-3 days in a decalcifying fixative (Surgipath Decalifier, Surgipath Medical Ind., Inc., Richmond Va.), both knee joints were trimmed of extraneous tissue, embedded in the frontal plane and sectioned. […] Slides were examined by a board-certified veterinary pathologist blinded to study group designation, and were scored according to the method below. […]
Medial and lateral femoral and tibial cartilage degeneration were scored for severity of cartilage degeneration using the following system: Depth/extent of chondrocyte and proteoglycan loss with fibrillation: […]
The design of this study was similar to that described above in Example 3.3.1. […] Body weights were recorded weekly. […]

shift of the DVD2-Ig binding protein SEC signal in complex with antigen [1] [%] | Molecule | reduction in mean arthritis score compared to control group [2] [%] | preventing cartilage degradation (medial tibial cartilage degeneration scores) [3]
100 | DVD2-Ig: DVD-Ig as DVD1-Ig but with linkers ADAAP (light chain) and AKTTPP (heavy chain) (antibody) VH: MQLSGLTSEDSAMYFCVRFPTGNDYYAMDYWGQGTSVTVSSAKTTPPQIQLVQSGPELKKPGETVKISCKASGYTFRNYGMNWVKQAPGKDLKRMAWINTYTGESTYADDFKGRFAFSLETSASTAYLQINNLKNEDTATYFCARGIYYYGSSYAMDYWGQGTSVTVSS VL: PVEADDAATYYCQQNNEDPFTFGSGTKLEIKRADAAPNIQMTQTTSSLSASLGDRVTISCRASQDISNCLNWYQQKPDGTVKLLIYYTSRLHSGVPSRFSGSGSGTDYSLTISNLEQEDIATYFCQQGKTLPYAFGGGTKLEINR |  | 
 | 10G11: mouse anti-mouse IL-1β monoclonal antibody (clone 10G11) from IL-1α/β double KO mice (antibody, V domains shown, heavy chain variable domain of 10G11; light chain variable domain of 10G11, mouse anti-mouse IL-1β monoclonal antibody (clone 10G11) from IL-1α/β double KO mice) VH: EVQLQQSGPELVKPGTSVKMSCKTSGYTFTSYVMHWVKQKPGQGLEWIGYIIPYNDNTKYNEKFKGKATLTSDKSSSTAYMELSSLTSEDSAVYYCARRNEYYGSSFFDYWGQGTTLTVSS VL: DIQMTQSPASLSASVGETVTITCRGSGILHNYLVWYQQKQGKSPQLLVYSAKILADGVPSRFSGSGSGTQYSLKINSLQPEDFGSYYCQHFWSTPFTFGSGTKLEIKR | 24 | not effective in preventing cartilage degradation at any dose tested
